According to publication PMC4066749, “A sequence-based approach for prediction of CsrA/RsmA targets in bacteria with experimental validation in Pseudomonas aeruginosa” (Nucleic Acids Research, 2014):

Target: the molecule itself
Assay: SEC; Superdex 75 HR 10/30 analytical column calibrated with a Gel Filtration LMW Calibration Kit; absorbance at 280 nm; apparent molecular weights from elution volumes

Row | Protein | stoichiometry N | binding result
1 | RsmA (regulator of secondary metabolism), His-tagged (natural protein, also called CsrA homolog; wild-type RsmA protein; source: purification from E. coli) not shown | 2 | –
2 | RsmA-R44A mutant (natural protein, RsmA of Pseudomonas aeruginosa with R44A; also called the mutant) MLILTRRVGETLMVGDDVTVTVLGVKGNQVRIGVNAPKEVAVHAEEIYQRIQKEKDQEPNH | – | binds
